Several values for one entry are separate records, joined by “and”; a condition that tells them apart may be missing. Identical values can stand only once. Like-named read-outs stand apart in the source and are kept apart here.
Experiments:
[1] = target: I100T Sin (mildly activated Sin mutant) (Staphylococcus aureus (plasmid pI9789)); test: AUC
[2] = target: I100T Sin (mildly activated Sin mutant) (Staphylococcus aureus (plasmid pI9789)); test: AUC; remark: listed apart in the source
[3] = target: S9A/R54E/Q115R Sin (highly activated Sin mutant with the active site serine changed) (Staphylococcus aureus (plasmid pI9789)); test: AUC
[4] = target: S9A/R54E/Q115R Sin (highly activated Sin mutant with the active site serine changed) (Staphylococcus aureus (plasmid pI9789)); test: AUC; remark: listed apart in the source
Sin I100T = Sin I100T (Staphylococcus aureus (plasmid pI9789), UniProt Q53757 1-202, I100T); test: AUC sedimentation velocity
Sin S9A/R54E/Q115R = Sin S9A/R54E/Q115R (Staphylococcus aureus (plasmid pI9789), UniProt Q53757 1-202, S9A;R54E;Q115R); test: AUC sedimentation velocity and equilibrium

I100T Sin (mildly activated Sin mutant) (enzyme)
stoichiometry N [1]: 2 | stoichiometry N [2]: 2

S9A/R54E/Q115R Sin (highly activated Sin mutant with the active site serine changed) (enzyme)
Kd [3]: 400 nM | stoichiometry N [3]: 2 and 4 | Kd [4]: 450 nM

B1: 52-mer site I dsDNA (AUC) (dsDNA)
DNA 1: GCCTAGTTCTTTGTGAAATTTGGGTATACCCTAATCATACAAGCTTGATCTG
DNA 2: CAGATCAAGCTTGTATGATTAGGGTATACCCAAATTTCACAAAGAACTAGGC
binding result (Sin I100T): binds | binding result (Sin S9A/R54E/Q115R): binds
